Test results reported in PMC10491405 (PLOS Pathogens, 2023).

B1: mouse monoclonal stem antibody C179 (antibody, V domains shown)
VH: EVKLVESGGGLVQPGGSLRLSCGTSGFTLTDDYMTWVRQPPGKALEWLGFIRDRANGYTTEYSASVKGRFTISRDNSQSIVYLQMNTLRVEDSATYYCARPKGYFPYAMDYWGQGTSVIVSS
VL: DIQMTQSPASQSASLGESVTITCLASQTIGTWLAWYQQKPGKSPQLLIYAATSLADGVPSRFSGSGSGTKFSFKISSLQAEDFVSYYCQQLYSTPWTFGGGTRLEIK
notes: source: purified from hybridoma from mouse ascitic fluid
B2: human monoclonal stem antibody FI6v3 (antibody, V domains shown)
VH: QVQLVESGGGVVQPGRSLRLSCAASGFTFSTYAMHWVRQAPGKGLEWVAVISYDANYKYYADSVKGRFTISRDNSKNTLYLQMNSLRAEDTAVYYCAKDSQLRSLLYFEWLSQGYFDYWGQGTLVTVSS
VL: not shown
notes: also called mAb FI6v3; source: VRC, NIH

Tests used:
Test in all cases: ELISA
Conditions in all cases: both partners purified
[1] = target: recombinant HA1 head protein (rHA1) of H1 HA (A/California/07/09, H1N1) (Influenza A virus A/California/07/2009 …, UniProt C3W5X2)
[2] = target: T1, full-length recombinant H1 HA protein (A/California/07/09, H1N1) (Influenza A virus A/California/07/2009 …, UniProt C3W5X2)
T1 construct: source: bought: Protein Sciences Corporation (purified recombinant full-length HA)

[3] = target: T2, H1 rHA ectodomain (trimeric HA ectodomain, A/California/07/09, H1N1) (Influenza A virus A/California/07/2009 …, UniProt C3W5X2)
T2 construct: source: bought: International Reagent Resource and Sino Biological (HA ectodomains)

| Binder | binding result [1] | binding result [2] | binding result [3] |
| --- | --- | --- | --- |
| B1 | no binding (tested: 0.5 μg/ml) | binds | binds |
| B2 | – | binds | – |
